The results in this text go back to patent publication US20140256621A1 (published 2014).

Numbering of substitutions follows the chain as printed.

T1: chimeric Hu-Leptin/Mu-EPO receptor (human; mouse, UniProt P48357 22-839; P14753 250-507)
T1 sequence (looked up): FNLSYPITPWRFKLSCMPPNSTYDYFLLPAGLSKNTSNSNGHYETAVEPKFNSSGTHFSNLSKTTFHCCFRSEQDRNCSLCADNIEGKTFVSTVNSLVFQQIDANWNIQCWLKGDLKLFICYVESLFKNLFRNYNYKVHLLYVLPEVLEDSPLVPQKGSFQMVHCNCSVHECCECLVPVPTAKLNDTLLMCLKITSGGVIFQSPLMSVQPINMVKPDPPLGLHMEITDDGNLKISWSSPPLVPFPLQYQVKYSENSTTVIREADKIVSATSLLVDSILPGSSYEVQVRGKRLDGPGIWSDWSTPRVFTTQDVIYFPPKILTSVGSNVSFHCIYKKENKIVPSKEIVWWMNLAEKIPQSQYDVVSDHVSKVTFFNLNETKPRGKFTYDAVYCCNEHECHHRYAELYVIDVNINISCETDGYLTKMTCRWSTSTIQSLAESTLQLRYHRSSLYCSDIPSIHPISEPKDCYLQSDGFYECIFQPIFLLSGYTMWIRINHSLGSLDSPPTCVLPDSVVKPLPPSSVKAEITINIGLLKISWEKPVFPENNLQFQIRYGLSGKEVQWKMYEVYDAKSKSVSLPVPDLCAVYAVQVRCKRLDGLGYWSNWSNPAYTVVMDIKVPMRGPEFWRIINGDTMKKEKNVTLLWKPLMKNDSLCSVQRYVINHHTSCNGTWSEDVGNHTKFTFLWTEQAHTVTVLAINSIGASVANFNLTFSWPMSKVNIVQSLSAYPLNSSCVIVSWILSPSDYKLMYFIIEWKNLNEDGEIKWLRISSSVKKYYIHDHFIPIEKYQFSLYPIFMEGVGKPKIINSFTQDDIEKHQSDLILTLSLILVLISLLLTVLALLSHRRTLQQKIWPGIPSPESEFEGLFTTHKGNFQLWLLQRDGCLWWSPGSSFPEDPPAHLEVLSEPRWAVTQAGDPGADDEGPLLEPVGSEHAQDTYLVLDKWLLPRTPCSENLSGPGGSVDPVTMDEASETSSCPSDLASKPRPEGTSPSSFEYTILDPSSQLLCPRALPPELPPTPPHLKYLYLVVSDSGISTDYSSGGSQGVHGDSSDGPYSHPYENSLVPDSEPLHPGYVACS

B1: Cmpd 68 (other)
chain: MLAEAKEAANAELDSYGVSDFYKRLIDKAKTVEGVEALKDAILAALPTGGGGSGGGSGGGSGGGSASVPIQKVQDDTKTLIKTIVTRINDISHTQSVSSKQKVTGLEFIPGLHPILTLSKMDQTLAVYQQILTSMPSRNVIQISNDLENLRDLLHVLAFSKSCHLPQASGLETLESLGGVLEASGYSTEVVALSRLQGSLQDMLQQLDLSPGC
B2: Cmpd 1 (other)
chain: MGSLAEAKEAANAELDSYGVSDFYKRLIDKAKTVEGVEALKDAILAALPTGGGGASVPIQKVQDDTKTLIKTIVTRINDISHTQSVSSKQKVTGLEFIPGLHPILTLSKMDQTLAVYQQILTSMPSRNVIQISNDLENLRDLLHVLAFSKSCHLPQASGLETLESLGGVLEASGYSTEVVALSRLQGSLQDMLQQLDLSPGC
B3: Cmpd 64 (other)
chain: MLAEAKEAANAELDSYGVSDFYKRLIDKAKTVEGVEALKDAILAALPTGGGGSGGGSGGGSGGGSASPIQRVQDDTKTLIKTIITRINDISPPQGVSSRPRVAGLDFIPRVQSVRTLSGMDQILATYQQILTSLQSRNVIQISNDLENLRDLLHVLAFSKSCPVPRARGSDTIKGLGNVLRASVHSTEVVALSRLKAALQDMLRQLDRNPGC
B4: Cmpd 70 (other)
chain: MGSLAEAKVLANRELDKYGVSDFYKRLIDKAKTVEGVEALKDAILAALPTGGEGGEGGEGGEGGEGGEASVPIQKVQDDTKTLIKTIVTRINDISHTQSVSSKQKVTGLEFIPGLHPILTLSKMDQTLAVYQQILTSMPSRNVIQISNDLENLRDLLHVLAFSKSCHLPQASGLETLESLGGVLEASGYSTEVVALSRLQGSLQDMLQQLDLSPGC
B5: Cmpd 69 (other)
chain: B4 chain with D29E, D42E
B6: PEP07986-negative linker-A500 (Compound 12) (other)
chain: B4 chain with V9E, L10A, R13A, K17S
notes: also called Cmpd 12; PEP07986-Negative-A500
B7: Cmpd 71 (other)
chain: MLAEAKEAANAELDSYGVSDFYKRLIDKAKTVEGVEALKDAILAALPTGGGGSGGGSGGGSGGGSASPIQRVQDDTKTLIKTIITRINDISHTQSVSSKQKVTGLDFIPGLHPILTLSGMDQILATYQQILTSLQSRNVIQISNDLENLRDLLHVLAFSKSCPVPRARGSDTIKGLGNVLRASVHSTEVVALSRLKAALQDMLRQLDRNPGC
B8: PEP07986-neutral linker-A500 (Compound 2) (other)
chain: MGSLAEAKEAANAELDSYGVSDFYKRLIDKAKTVEGVEALKDAILAALPTGGGGSGGGSGGGSGGGSASVPIQKVQDDTKTLIKTIVTRINDISHTQSVSSKQKVTGLEFIPGLHPILTLSKMDQTLAVYQQILTSMPSRNVIQISNDLENLRDLLHVLAFSKSCHLPQASGLETLESLGGVLEASGYSTEVVALSRLQGSLQDMLQQLDLSPGC
notes: also called Cmpd 2; PEP07986-Neutral-A500
B9: Cmpd 41 (other)
chain: B8 chain with E6Q, A13R
B10: Cmpd 63 (printed with SEQ ID NO: 659 in Table X4) (other)
chain: B8 chain with H166S, G181E, M205I, G214E
B11: Cmpd 55 (other)
chain: B8 chain with E9V, A10L, A13R, S17K
B12: Cmpd 48 (other)
chain: B8 chain with A13R, S17A
B13: Cmpd 9 (other)
chain: MGSLAEAKEAANAELDSYGVSDFYKRLIDKAKTVEGVEALKDAILAALPTGGGGSGGGSGGGSGGGSASPIQRVQDDTKTLIKTIITRINDISPPQGVSSRPRVAGLDFIPRVQSVRTLSGMDQILATYQQILTSLQSRNVIQISNDLENLRDLLHVLAFSKSCPVPRARGSDTIKGLGNVLRASVHSTEVVALSRLKAALQDMLRQLDRNPGC

T6 sequence (P49822 25-608 limits assumed): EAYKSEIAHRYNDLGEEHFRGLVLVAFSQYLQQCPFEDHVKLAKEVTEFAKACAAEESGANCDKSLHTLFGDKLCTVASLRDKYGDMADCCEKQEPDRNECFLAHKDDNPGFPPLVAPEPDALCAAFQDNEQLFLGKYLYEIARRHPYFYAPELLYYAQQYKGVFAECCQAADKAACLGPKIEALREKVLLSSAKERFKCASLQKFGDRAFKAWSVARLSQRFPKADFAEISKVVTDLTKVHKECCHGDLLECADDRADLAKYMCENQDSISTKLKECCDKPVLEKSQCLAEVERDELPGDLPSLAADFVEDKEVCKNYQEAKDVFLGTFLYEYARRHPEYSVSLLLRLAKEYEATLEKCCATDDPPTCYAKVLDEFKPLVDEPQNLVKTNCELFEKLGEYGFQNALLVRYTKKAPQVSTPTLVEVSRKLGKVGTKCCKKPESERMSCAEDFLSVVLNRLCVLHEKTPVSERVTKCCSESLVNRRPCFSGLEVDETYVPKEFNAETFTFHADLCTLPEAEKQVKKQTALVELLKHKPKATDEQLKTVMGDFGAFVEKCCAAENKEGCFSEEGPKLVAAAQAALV

The target in one assay is T1, chimeric Hu-Leptin/Mu-EPO receptor. Put plainly: cell-based or functional assay.
For the molecule B1, the “EC50 nM (Obeca STAT5 assay)” value was found to be 0.71 nM.
For the molecule B2, the “EC50 nM (Obeca STAT5 assay)” value was 0.908 nM.
Still for that read-out and setting: for B3 the value was 0.634 nM.
B4: the “EC50 nM (Obeca STAT5 assay)” value amounted to 0.941 nM.
Still for that read-out and setting: for B5 the value was 0.832 nM.
For the molecule B6, the “EC50 nM (Obeca STAT5 assay)” value turned out to be 0.947 nM.
On the same count and under the same terms, for B7 the value was 1.26 nM; for B8, 0.725 nM; for B9, 0.506 nM.
Same read-out and setting: for B10 the value was 0.785 nM; for B11, 0.639 nM.
For the molecule B12, the “EC50 nM (Obeca STAT5 assay)” value was found to be 0.553 nM.
For the molecule B13, the “EC50 nM (Obeca STAT5 assay)” value came to 0.433 nM.

The next assay deals with T2, human serum albumin (human, UniProt P02768 25-609).
T2 construct: also called HSA; Albucult (Novozyme)
T2 sequence (P02768 25-609 limits assumed): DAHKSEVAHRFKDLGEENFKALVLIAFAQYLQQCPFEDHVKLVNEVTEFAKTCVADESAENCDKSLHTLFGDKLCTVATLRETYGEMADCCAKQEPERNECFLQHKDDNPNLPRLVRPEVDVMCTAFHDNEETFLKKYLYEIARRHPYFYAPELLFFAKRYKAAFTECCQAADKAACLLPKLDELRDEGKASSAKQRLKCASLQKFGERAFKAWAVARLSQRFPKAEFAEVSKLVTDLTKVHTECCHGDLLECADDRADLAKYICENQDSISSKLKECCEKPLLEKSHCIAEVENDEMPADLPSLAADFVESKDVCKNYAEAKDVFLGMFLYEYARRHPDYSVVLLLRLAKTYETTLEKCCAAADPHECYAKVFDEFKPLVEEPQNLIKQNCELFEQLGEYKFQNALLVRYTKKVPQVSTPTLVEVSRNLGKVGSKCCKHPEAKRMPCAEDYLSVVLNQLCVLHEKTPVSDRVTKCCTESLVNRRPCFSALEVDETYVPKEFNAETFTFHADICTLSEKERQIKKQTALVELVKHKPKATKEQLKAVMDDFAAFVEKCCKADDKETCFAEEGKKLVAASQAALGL
In words: SPR (BioRad ProteOn XPR36), albumin amine-coupled on GLC chip, polypeptide injected from 5 nM in 3-fold dilutions, 25 C; relative KD. As to the method: (§1) All studies were conducted on a BioRad ProteOn XPR36 system using a GLC sensor chip at 25 degrees C. For amine coupling the GLC chip was activated for 5 minutes using a 1:1 mixture of sulfo-NHS/EDC diluted 30-fold from the initial stock in water as shown below. Each albumin sample was diluted to 25 ug/ml in 10 mM Na Acetate pH 5.0 and injected for 5 minutes over separate sensor surfaces. Each surface was then blocked with 1 M ethanolamine pH 8.5. Each albumin was coupled at a density of 2000-5000 in resonance units.
(§2) The binding of an engineered polypeptide was tested using 5 nM as the highest concentration in a three-fold dilution series. The running buffer contained 10 mM HEPES pH 7.4, 150 mM NaCl, 3 mM EDTA and 0.005% tween-20. All samples were tested using a 3-fold dilution series. Each concentration series was tested in duplicate. The dissociation phase for the highest concentration […] was monitored for 3 hours.
With B6, binding was put at a Kd of 0.27 nM.
Same read-out and setting: for B8 the value was 0.152 nM.

In the next assay the target is T3, Rat SA (rat, UniProt P02770 25-608).
T3 construct: also called rat serum albumin
T3 sequence (P02770 25-608 limits assumed): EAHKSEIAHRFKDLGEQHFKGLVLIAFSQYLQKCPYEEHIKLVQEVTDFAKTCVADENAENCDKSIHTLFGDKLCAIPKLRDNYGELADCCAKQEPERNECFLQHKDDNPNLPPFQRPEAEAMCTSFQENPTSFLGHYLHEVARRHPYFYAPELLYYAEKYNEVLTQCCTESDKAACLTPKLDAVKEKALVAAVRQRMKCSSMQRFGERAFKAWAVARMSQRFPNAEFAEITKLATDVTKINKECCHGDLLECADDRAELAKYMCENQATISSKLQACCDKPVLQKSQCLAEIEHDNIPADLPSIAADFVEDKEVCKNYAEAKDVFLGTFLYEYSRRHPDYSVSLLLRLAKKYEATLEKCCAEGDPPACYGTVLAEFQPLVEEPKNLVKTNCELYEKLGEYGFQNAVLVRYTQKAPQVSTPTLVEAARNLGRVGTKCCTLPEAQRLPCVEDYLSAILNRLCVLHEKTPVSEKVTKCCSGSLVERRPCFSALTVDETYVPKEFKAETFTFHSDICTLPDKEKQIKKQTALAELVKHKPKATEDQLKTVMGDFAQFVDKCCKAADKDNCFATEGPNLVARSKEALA
The description is as above. As to the method: as §1, §2
Regarding B6, the equilibrium dissociation constant (Kd) (as a rule, a measure of binding affinity in units of concentration) worked out at 0.01 nM.
B8 yielded a Kd of 0.023 nM.

The target in another assay is T4, Mouse SA (mouse, UniProt P07724 25-608).
T4 construct: also called mouse serum albumin
The assay is described as above. The protocol: as §1, §2
For B6, the affinity, expressed as Kd, was 1.94 nM.
Molecule B8 registered a Kd of 1.66 nM.

For the next assay, the target named is T5, Monkey SA (monkey).
T5 construct: also called monkey serum albumin
T5 sequence (A2V9Z4 25-608): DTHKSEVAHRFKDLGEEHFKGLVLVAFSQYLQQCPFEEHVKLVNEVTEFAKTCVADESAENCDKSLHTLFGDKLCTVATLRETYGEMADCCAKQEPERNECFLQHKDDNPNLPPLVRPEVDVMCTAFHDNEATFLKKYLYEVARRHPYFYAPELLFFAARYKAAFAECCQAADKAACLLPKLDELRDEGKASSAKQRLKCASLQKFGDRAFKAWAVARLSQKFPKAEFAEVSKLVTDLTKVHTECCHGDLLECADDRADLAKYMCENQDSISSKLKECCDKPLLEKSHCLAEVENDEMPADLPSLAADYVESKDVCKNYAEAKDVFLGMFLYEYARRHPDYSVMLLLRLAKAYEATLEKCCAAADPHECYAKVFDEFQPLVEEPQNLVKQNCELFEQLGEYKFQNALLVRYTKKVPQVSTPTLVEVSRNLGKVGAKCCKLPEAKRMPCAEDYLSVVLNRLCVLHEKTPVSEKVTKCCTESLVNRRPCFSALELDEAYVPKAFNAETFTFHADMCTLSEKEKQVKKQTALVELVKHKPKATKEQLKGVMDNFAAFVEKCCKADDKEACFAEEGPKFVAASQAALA
The assay is described as above. The protocol:
as §1, §2
In turn, B6 yielded a Kd of 0.4 nM.
In turn, B8 displayed a Kd of 0.405 nM.

The next assay concerns the target T6, Dog SA (dog, UniProt P49822 25-608).
T6 construct: also called dog serum albumin
Described as above. As to the method: as §1, §2
B6 returned a dissociation constant Kd of 1.81 nM.
As to B8, binding was characterised by a dissociation constant (Kd) of 1.31 nM.
